The text below walks through data of patent US20190024103.

What all share (assay): cell_activity
Holding throughout (settings): TALEN pair

In data set [1] the test system is GmFAD3_T03 TALEN right monomer (synthetic).
Data set [2] concerns GmFAD3_T02 TALEN right monomer (synthetic).
Data set [3] relates to GmFAD3_T01 TALEN right monomer (synthetic).
Data set [4] concerns GmFAD3_T01 TALEN left monomer (synthetic).
Data set [5] deals with GmFAD3_T03 TALEN left monomer (synthetic).
Data set [6] relates to GmFAD3_T02 TALEN left monomer (synthetic).
Where [7] appears, read: soybean protoplasts, text p95 gives 2.39.

The sequence “ACAAAATCATGGACAC (double strand) [FAD3A_T03 right]” had an activity in data set [1] (setting [7]) of 4.4 % NHEJ.

“ACTCAATTCTTGTGCC (double strand) [FAD3A_T02 right]” yielded an activity in data set [2] (soybean protoplasts) of 14.5 % NHEJ.

For the sequence “AGGAAGCTTTTCAGAC (double strand) [FAD3A_T01 right]”, in data set [3] (soybean protoplasts), the activity came out at 10.2 % NHEJ.

In the case of “ATGGTTAAAGACACAAAGCCTTTAGCCTATGCTGCCAATAATGGATACCAACAAAAGGGTTCTTCTTTTGATTTTGATCCTAGCGCTCCTCCACCGTTTAAGATTGCAGAAATCAGAGCTTCAATACCAAAACATTGCTGGGTCAAGAATCCATGGAGATCCCTCAGTTATGTTCTCAGGGATGTGCTTGTAATTGCTGCATTGGTGGCTGCAGCAATTCACTTCGACAACTGGCTTCTCTGGCTAATCTATTGCCCCATTCAAGGCACAATGTTCTGGGCTCTCTTTGTTCTTGGACATGATTGGTAATAATTTTTGTGTTTCTTACTCTTTTTTTTTTTTTTTTGTTTATGATATGAATCTCACACATTGTTCTGTTATGTCATTTCTTCTTCATTTGGCTTTAGACAACTTAAATTTGAGATCTTTATTATGTTTTTGCTTATATGGTAAAGTGATTCTTCATTATTTCATTCTTCATTGATTGAATTGAACAGTGGCCATGGAAGCTTTTCAGATAGCCCTTTGCTGAATAGCCTGGTGGGACACATCTTGCATTCCTCAATTCTTGTGCCATACCATGGATGGTTAGTTCATACTGGCTTTTTTGTTTGTTCATTTGTCATTGAAAAAAAATCTTTTGTTGATTCAATTATTTTTATAGTGTGTTTGGAAGCCCGTTTGAGAAAATAAGAAATCGCATCTGGAATGTGAAAGTTATAACTATTTAGCTTCATCTGTCGTTGCAAGTTCTTTTATTGGTTAAATTTTTATAGCGTGCTAGGAAACCCATTCGAGAAAATAAGAAATCACATCTGGAATGTGAAAGTTATAACTGTTAGCTTCTGAGTAAACGTGGAAAAACCACATTTTGGATTTGGAACCAAATTTTATTTGATAAATGACAACCAAATTGATTTTGATGGATTTTGCAGGAGAATTAGCCACAGAACTCACCATCAAAACCATGGACACATTGAGAAGGATGAGTCATGGGTTCCA (double strand) [FAD3B gene]”, the activity in data set [4] (FAD3B off-target) was 1.48 % NHEJ; in data set [3] (FAD3B off-target), 1.48 % NHEJ; in data set [5] (FAD3B off-target), 2.39 % NHEJ; in data set [1] (FAD3B off-target), 2.39 % NHEJ.

On to “ATGGTTCAAGCACAGCCTCTACAACATGTTGGTAATGGTGCAGGGAAAGAAGATCAAGCTTATTTTGATCCAAGTGCTCCACCACCCTTCAAGATTGCAAATATCAGAGCAGCAATTCCAAAACATTGCTGGGAGAAGAACACATTGAGATCTCTGAGTTATGTTCTGAGGGATGTGTTGGTAGTGACTGCATTGGTAGCTGCAGCAATCGGCTTCAATAGCTGGTTCTTCTGGCCACTCTATTGGCCTGCACAAGGCACAATGTTTTGGGCACTTTTTGTTCTTGGACATGATTGGTAACTAATTATTATTACAAATTGTTATGTTATGTTATGTTATGTTGTTGTGCCTTTTTCTCAGTGATGCTTTAGTCATTTCATTTCACTTGGTTATGCATGATTGTTCGTTCATATGTTCTGTCATGGTGAGTTCTAATTTGATTGATGCATGGAACAGTGGTCATGGAAGTTTTTCAAACAGTCCTTTGTTGAACAGCATTGTGGGCCACATCTTGCACTCTTCAATTCTTGTACCATACCATGGATGGTCGGTTCCTTTTAGCAACTTTTCATGTTCACTTTGTCCTTAAATTTTTTTTTATGTTTGTTAAAAAATCTTTGGTCTGATTTAACAACCTAACCATTTTTACAACTCATGGATTTTTTGCAGGAGAATTAGCCACAGGACTCACCATCAGAACCATGGCCATGTTGAGAAGGATGAATCATGGGTTCCG (double strand) [FAD3C gene]”, for which the activity in data set [4] (FAD3C off-target) was found to be 0.04 % NHEJ; in data set [3] (FAD3C off-target), 0.04 % NHEJ; in data set [6] (FAD3C off-target) it was 0.01 % NHEJ; in data set [2] (FAD3C off-target) it was 0.01 % NHEJ; in data set [5] (FAD3C off-target) it was 0.17 % NHEJ; in data set [1] (FAD3C off-target), 0.17 % NHEJ.

In the case of “CCTCAATTCTTGTGCC (double strand) [FAD3B T02 right site]”, in data set [2] (FAD3B off-target), the activity came out at 8.81 % NHEJ.

As for “CTAAATAGCCTGGTGT (double strand) [FAD3A_T02 left]”, the activity in data set [6] (soybean protoplasts) worked out at 14.5 % NHEJ.

As for “CTGAATAGCCTGGTGG (double strand) [FAD3B T02 left site]”, the activity in data set [6] (FAD3B off-target) was found to be 8.81 % NHEJ.

Sequence “TCATTCTTCACATTGT (double strand) [FAD3A_T01 left]” gave an activity in data set [4] (soybean protoplasts) of 10.2 % NHEJ.

“TTTGCAGGAGAATTAT (double strand) [FAD3A_T03 left]” came in with an activity in data set [5] (setting [7]) of 4.4 % NHEJ.
